This note sets out measurements from patent publication US20090081211A1 (Genentech, published 2009).

In this test the target is T1, human complement C3 (human, UniProt P01024 23-1663).
T1 construct: also called native C3; pro-molecule C3
Description: ELISA on purified C3b or C3 (FIG. 8). The method, then: In another experiment, purified C3b or C3 were captured in microtiter plates using a polyclonal C3 antibody. Binding of S77 (A) or a polyclonal anti C3 antibody (B) to captured C3b or C3 was determined using a secondary HRPO-conjugated antibody. Color was developed with TMB (KPL), stopped in 2N H₂SO₄ and absorbance read at 450 nm.
C3b ELISA for testing specificity of anti C3b antibody S77. Twenty-five μL of capture antibody (YW144.2.45.S77 Affinity Matured xC3/C3b (Genentech) 2 μg/ml) diluted in PBS was added to wells of a microtitre plate and incubated overnight at 4° C. The plate was washed 3× with wash buffer (PBS/0.05% Tween 20 (20× stock; Media Prep; Cat. A3355)). Fifty μL of block buffer was added to the wells and the plate incubated for 1-3 hours with gentle agitation (room temperature) and washed 3× with wash buffer. […] OD reading of plate was taken (450/630 nm). […]
For orientation: An ELISA detects its analyte on a solid surface through an enzyme-linked reagent.

T1 sequence (P01024 other isoform, or with tags, fused parts or gaps limits assumed): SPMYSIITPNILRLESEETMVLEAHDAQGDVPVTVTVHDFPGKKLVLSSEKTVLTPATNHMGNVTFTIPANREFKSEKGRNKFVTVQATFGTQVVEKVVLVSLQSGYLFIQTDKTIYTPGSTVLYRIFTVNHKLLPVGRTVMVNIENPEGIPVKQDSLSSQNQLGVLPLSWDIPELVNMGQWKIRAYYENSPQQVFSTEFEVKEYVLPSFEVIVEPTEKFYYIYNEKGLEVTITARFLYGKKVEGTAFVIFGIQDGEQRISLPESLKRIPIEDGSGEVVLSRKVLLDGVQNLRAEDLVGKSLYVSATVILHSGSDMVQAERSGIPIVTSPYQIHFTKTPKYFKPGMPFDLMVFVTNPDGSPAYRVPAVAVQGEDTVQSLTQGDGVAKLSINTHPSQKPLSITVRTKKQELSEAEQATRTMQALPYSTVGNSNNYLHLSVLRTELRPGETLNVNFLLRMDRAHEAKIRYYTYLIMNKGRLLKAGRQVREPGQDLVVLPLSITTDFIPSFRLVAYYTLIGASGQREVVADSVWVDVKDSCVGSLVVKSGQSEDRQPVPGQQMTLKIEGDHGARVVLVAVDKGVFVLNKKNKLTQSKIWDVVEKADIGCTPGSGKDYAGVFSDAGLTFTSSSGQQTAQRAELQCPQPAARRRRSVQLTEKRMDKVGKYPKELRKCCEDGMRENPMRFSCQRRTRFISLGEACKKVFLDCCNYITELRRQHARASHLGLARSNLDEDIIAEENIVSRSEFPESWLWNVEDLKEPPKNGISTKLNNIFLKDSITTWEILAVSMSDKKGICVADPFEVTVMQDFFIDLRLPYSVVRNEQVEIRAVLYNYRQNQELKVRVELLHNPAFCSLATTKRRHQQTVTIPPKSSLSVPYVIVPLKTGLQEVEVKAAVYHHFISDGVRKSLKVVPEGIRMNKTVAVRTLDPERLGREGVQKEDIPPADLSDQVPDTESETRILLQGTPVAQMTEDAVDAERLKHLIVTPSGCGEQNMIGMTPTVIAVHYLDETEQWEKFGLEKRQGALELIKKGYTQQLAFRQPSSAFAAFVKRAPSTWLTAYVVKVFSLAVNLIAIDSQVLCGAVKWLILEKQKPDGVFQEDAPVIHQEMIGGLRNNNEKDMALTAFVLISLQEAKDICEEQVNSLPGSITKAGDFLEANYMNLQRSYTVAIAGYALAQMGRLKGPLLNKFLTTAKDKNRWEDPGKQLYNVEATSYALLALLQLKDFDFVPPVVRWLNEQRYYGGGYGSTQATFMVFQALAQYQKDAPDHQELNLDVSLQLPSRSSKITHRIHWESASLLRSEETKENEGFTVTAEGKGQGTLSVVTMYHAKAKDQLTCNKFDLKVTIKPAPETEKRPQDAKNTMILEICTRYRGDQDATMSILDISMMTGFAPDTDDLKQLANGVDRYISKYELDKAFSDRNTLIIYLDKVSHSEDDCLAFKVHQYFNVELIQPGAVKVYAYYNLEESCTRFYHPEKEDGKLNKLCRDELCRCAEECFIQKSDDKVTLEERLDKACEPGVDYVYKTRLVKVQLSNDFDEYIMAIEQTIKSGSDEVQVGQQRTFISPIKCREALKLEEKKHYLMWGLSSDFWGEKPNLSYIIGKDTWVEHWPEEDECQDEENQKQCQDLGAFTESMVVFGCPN

B1: antibody S77 (YW144.2.43.S77), format in the assay not stated (antibody, V domains shown)
VH: EVQLVESGGGLVQPGGSLRLSCAASGFSFTSSSVSWVRQAPGKGLEWVGLIYPYNGFNYYADSVKGRFTISADTSKNTAYLQMNSLRAEDTAVYYCARNALYGSGGYYAMDYWGQGTLVTVSS
VL: DIQMTQSPSSLSASVGDRVTITCRASQDVSTAVAWYQQKPGKAPKLLIYSASFLYSGVPSRFSGSGSGTDFTLTISSLQPEDFATYYCQQSYATLPTFEQGTKVEIK
notes: also called anti C3b antibody S77
As to B1, the binding result is “no binding”.
